Measurements as given in patent US20190248902A1 (published 2019).
Numbering of substitutions follows the chain as printed. One block for each binder: values may come before it.

Key:
[1] = molecular target: T1, recombinant, soluble human ASGR-1 (human, UniProt P07306 62-291); assay: Octet BLI dissociation, pH 5.6 plus calcium
T1 construct: biotinylated in the binning assay; also called soluble huASGR-1; Soluble ASGR-1 (Amgen)
T1 sequence: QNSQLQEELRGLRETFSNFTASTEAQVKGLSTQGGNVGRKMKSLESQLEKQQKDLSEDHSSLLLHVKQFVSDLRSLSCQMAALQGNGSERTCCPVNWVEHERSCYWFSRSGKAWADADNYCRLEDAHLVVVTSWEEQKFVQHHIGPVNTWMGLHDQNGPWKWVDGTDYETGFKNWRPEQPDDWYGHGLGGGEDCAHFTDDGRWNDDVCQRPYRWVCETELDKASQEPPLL
Experimental: (§1) The relative dissociation of ASGR-1 from antibodies was measured using a label-free assay on an OctetHTX instrument (Fortebio). Antibody samples were captured on anti-HuFc kinetic biosensors (ForteBio cat #18-5064) at 5 ug/mL in assay buffer (10 mM Tris, 0.1% Triton, 150 mM NaCl, 1 mg/mL BSA, 1 mM CaCl2, pH7.4) for three minutes. A one minute baseline stabilization step was performed in assay buffer. Soluble ASGR-1 (Amgen) at 6 ug/ml in assay buffer was added and association to the antibodies was monitored for two minutes. Subsequent dissociation of ASGR-1 from the antibodies was performed by incubating the ASGR-1-mAb complexes for 10 minutes under each of the following conditions:
(§2) The binding signal at the end of the 2 minute association phase for each dissociation experiment was set to 100% and used to represent the maximal level of ASGR-1 binding. After 1 minute of dissociation, the percentage of ASGR-1 remaining bound was calculated. The lower the percent remaining at a given time point indicates increased levels of dissociation in response to the test conditions (ie. different pH and/or calcium concentrations). The change in the percentage of ASGR-1 remaining bound in response to each test condition relative to the percent remaining in the control conditions (ie. pH 7.4+calcium) was determined. Cut-offs for an antibody to be categorized as being sensitive to a particular condition were set to >10% (ie. if >10% of the ASGR-1 dissociates from the antibody under a particular test condition compared to control condition, it was deemed sensitive to that condition). The analysis was done using the 1 minute dissociation time point (except for mAb 149A1 which was binned based on the 4 minute dissociation time point). Using this analysis, the ASGR-1-binding, receptor-ligand blocking antibodies were separated into groups according to their dissociation profiles in response to pH and calcium (Table 7.3). Antibodies belonging to each category were observed.

[2] = molecular target: T1, recombinant, soluble human ASGR-1; assay: Octet BLI dissociation, pH 5.6 minus calcium
Experimental: as §1, §2

[3] = molecular target: T1, recombinant, soluble human ASGR-1; assay: Octet BLI dissociation, pH 7.4 minus calcium
Experimental: as §1, §2

B1: 154F4 (antibody, V domains shown)
VH: QVQLVESGGGVVQPGRSLRLSCAASGFTFSSYGMHWVRQAPGKGLEWVAVIWYDGSNKYYADSVKGRFTISRDNSKNTLYLQMNSLRAEDTAVYYCAREDSYCSGTSCPYYYYYGMDVWGQGTTVTVSS
VL: SYELTQPPSVSVSPGQTASITCSGDKLGNKYVCWYQQKPGQSPVEVIYKDSKRPSGIPERFSGSNSGNTGTLTISGTQAMDEADYYCQAWDNSTLVFGGGTKLTVL
notes: hybridoma mAb
% Change Compared to pH 7.4 + Calcium [1]: 41%
% Change Compared to pH 7.4 + Calcium [2]: 67%
% Change Compared to pH 7.4 + Calcium [3]: 10%

B2: 159H8 (antibody, V domains shown)
VH: B1 VH with S31T, E99D, D100R, S101V, Y102S, G105S
VL: SYELTQPPSVSVSPGQTASITCSGDKLGDKYVCWYQQKPGQSPVLVIYQDRKRPSGIPERFSGSNSGNTATLTISGTQALDEADYYCQAWGNSSFVVFGGGTKLTVL
notes: hybridoma mAb
% Change Compared to pH 7.4 + Calcium [1]: 10%
% Change Compared to pH 7.4 + Calcium [2]: 26%
% Change Compared to pH 7.4 + Calcium [3]: 6%

B3: 27E7 (antibody, V domains shown)
VH: B1 VH with G105S
VL: B1 VL with V32A, K49Q, S55L, G70A, N92S, L95V
notes: hybridoma mAb
% Change Compared to pH 7.4 + Calcium [1]: 35%
% Change Compared to pH 7.4 + Calcium [2]: 46%
% Change Compared to pH 7.4 + Calcium [3]: 20%

B5: 22G5 (antibody, V domains shown)
VH: EVQLLESGGGLVQPGGSLRLSCAASGFTFSSYAMNWVRQAPGMGLEWVSVISRSGGYTYYADSVKGRFTISRDNSKNTLYLQMNSLRAEDTAVYYCASRLAVAGSEAFDIWGQGTLVTVSS
VL: DIQMTQSPSSLSASVGDRVTITCRASQNISSYLNWYQQKQGKAPKLLIYAASSLQNGVPSRFSGRGSGTDFTLTISSLQPEDFATYYCQQSYRTPLFTFGPGTKVDFK
notes: hybridoma mAb
% Change Compared to pH 7.4 + Calcium [1]: 35%
% Change Compared to pH 7.4 + Calcium [3]: 40%

B7: 64E2 (antibody, V domains shown)
VH: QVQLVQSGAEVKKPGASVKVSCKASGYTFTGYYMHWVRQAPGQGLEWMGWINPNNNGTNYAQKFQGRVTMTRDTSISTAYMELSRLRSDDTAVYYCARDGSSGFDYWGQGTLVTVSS
VL: DIQMTQSPSSVSASVGDRVTITCRASQGISRWLAWYQQKPGKAPKLLIYAASSLQSGVPSRFSGSGSGTDFTLTISSLQPEDFATYYCQQANSFPFTFGPGTKVDIK
notes: hybridoma mAb
% Change Compared to pH 7.4 + Calcium [1]: 29%
% Change Compared to pH 7.4 + Calcium [2]: 49%
% Change Compared to pH 7.4 + Calcium [3]: 48%

B9: 4H6 (antibody, V domains shown)
VH: QVQLVQSGAEVKKPGASVKVSCKASGYTFTDYYLHWVRQAPGQGLEWMGWIHPNSGGTNYAQKFQGRVTMTRDTSISTAYMGLSSLRSDDTAVYYCARDGTSSFDYWGQGTLVTVSS
VL: B7 VL with A50G, T85I
notes: hybridoma mAb
% Change Compared to pH 7.4 + Calcium [1]: -1%
% Change Compared to pH 7.4 + Calcium [2]: 2%
% Change Compared to pH 7.4 + Calcium [3]: 5%

B10: 50D4 (antibody, V domains shown)
VH: QVQLVQSGAEVKKPGASVKVSCKASGYTFTGYHMHWVRQAPGQGLEWMGWINPNNNATNYAQSFQGRVTLTRDTSISTAYMELSRLRSDDTAVYYCARDGTSSFDFWGQGTLVTVSS
VL: B7 VL with V19L, L46V, S53T, K107R
notes: hybridoma mAb
% Change Compared to pH 7.4 + Calcium [1]: 0%
% Change Compared to pH 7.4 + Calcium [2]: 9%
% Change Compared to pH 7.4 + Calcium [3]: 6%

B11: 49F10 (antibody, V domains shown)
VH: B10 VH with S63N
VL: B7 VL with L46V, S53T
notes: hybridoma mAb
% Change Compared to pH 7.4 + Calcium [1]: -2%
% Change Compared to pH 7.4 + Calcium [2]: 8%
% Change Compared to pH 7.4 + Calcium [3]: 4%

B15: 10G6 (antibody, V domains shown)
VH: B10 VH with G31A, A57G, S63K, L70M, A97G, G100V, F106Y
VL: B7 VL with R31K, L46I, S52Y, S60A, S76R
notes: hybridoma mAb
% Change Compared to pH 7.4 + Calcium [1]: 4%
% Change Compared to pH 7.4 + Calcium [2]: 15%
% Change Compared to pH 7.4 + Calcium [3]: 7%

B18: 51E9 (antibody, V domains shown)
VH: B10 VH with G26R, M34I, N55T, A57G, N59Q, S63K, L70M, F106Y
VL: B7 VL with R31S, A50V, S76R, N92K
notes: hybridoma mAb
% Change Compared to pH 7.4 + Calcium [1]: -5%
% Change Compared to pH 7.4 + Calcium [2]: 2%
% Change Compared to pH 7.4 + Calcium [3]: 3%

B22: 26C4 (antibody, V domains shown)
VH: QVQLVQSGAEVKKPGASVKVSCKASGYTFTNYDINWVRQASGQGLEWMGWMNPNSGNTGYAQRFQGRVTMTRNTSINTAYMELSSLRSEDTAVYYCASSSGWYYFDYWGQGTLVTVSS
VL: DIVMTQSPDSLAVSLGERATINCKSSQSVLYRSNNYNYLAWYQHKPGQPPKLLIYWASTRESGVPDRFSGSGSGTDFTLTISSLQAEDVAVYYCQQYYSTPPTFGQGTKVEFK
notes: hybridoma mAb
% Change Compared to pH 7.4 + Calcium [1]: 2%
% Change Compared to pH 7.4 + Calcium [2]: 2%
% Change Compared to pH 7.4 + Calcium [3]: 3%

B23: 25A4 (antibody, V domains shown)
VH: B22 VH with Q3L, K13R, S41T, N52Y, R63K, N77S
VL: DIVMTQFPDSLAVSLGERATIKCKSSQSVLYSSHNNNYLAWYQQKPGQPPKLLLYWASTRESGVPDRFSGSGSGTEFTLTISSLEAEDVAVYYCQQYYSTPPTFGQGTKVEIK
notes: hybridoma mAb
% Change Compared to pH 7.4 + Calcium [1]: -3%
% Change Compared to pH 7.4 + Calcium [2]: -1%
% Change Compared to pH 7.4 + Calcium [3]: 2%

Next, values leading:

% Change Compared to pH 7.4 + Calcium [1]: 8%
% Change Compared to pH 7.4 + Calcium [2]: 22%
% Change Compared to pH 7.4 + Calcium [3]: 6%
B4: 160B12 (antibody, V domains shown)
VH: B1 VH with E99D, D100R, S101V, Y102S, G105S
VL: B2 VL with Y2D, P7S, R51S
notes: hybridoma mAb

% Change Compared to pH 7.4 + Calcium [1]: 2%
% Change Compared to pH 7.4 + Calcium [2]: 10%
% Change Compared to pH 7.4 + Calcium [3]: 3%
B6: 177D2 (antibody, V domains shown)
VH: QVQLVESGGGVVQPGRSLRLSCAASGFTFSSYGMDWVRQAPGKGLEWVAIIWFDGSNKYYADSVKGRFTISRDNSKNTLYLQMNSLRAEDTAVYYCARAYCGGDCYFPHLHYYGMDVWGQGTTVTVSS
VL: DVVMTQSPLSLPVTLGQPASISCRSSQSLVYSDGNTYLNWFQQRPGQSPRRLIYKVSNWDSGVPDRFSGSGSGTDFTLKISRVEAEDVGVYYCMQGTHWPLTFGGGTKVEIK
notes: hybridoma mAb

% Change Compared to pH 7.4 + Calcium [1]: 12%
% Change Compared to pH 7.4 + Calcium [2]: 29%
% Change Compared to pH 7.4 + Calcium [3]: 17%
B8: 70D1 (antibody, V domains shown)
VH: B10 VH with N55S, S63K, L70M, G100S, T101I, F104W, F106Y
VL: B7 VL with I29V, L73V
notes: hybridoma mAb

% Change Compared to pH 7.4 + Calcium [1]: 1%
% Change Compared to pH 7.4 + Calcium [2]: 13%
% Change Compared to pH 7.4 + Calcium [3]: 15%
B12: 52G11 (antibody, V domains shown)
VH: B9 VH with D31G, H52N, S55R, G56N, Y80F, G82E, S85R
VL: B7 VL with R31K, I48L, G64A, I106V
notes: hybridoma mAb

% Change Compared to pH 7.4 + Calcium [1]: 1%
% Change Compared to pH 7.4 + Calcium [2]: 13%
% Change Compared to pH 7.4 + Calcium [3]: 15%
B13: 53F2 (antibody, V domains shown)
VH: B9 VH with D31G, H52N, S55R, G56N, K63N, G82E, S85R, R87K
VL: B7 VL with R31K, K45N, I48L, R61K, I106V
notes: hybridoma mAb

% Change Compared to pH 7.4 + Calcium [1]: 3%
% Change Compared to pH 7.4 + Calcium [2]: 13%
% Change Compared to pH 7.4 + Calcium [3]: 9%
B14: 53F7 (antibody, V domains shown)
VH: B10 VH with A57G, S63K, L70M, S84N, R87T, F106Y
VL: B7 VL with T5S, K45N, T85I
notes: hybridoma mAb

% Change Compared to pH 7.4 + Calcium [1]: 13%
% Change Compared to pH 7.4 + Calcium [2]: 29%
% Change Compared to pH 7.4 + Calcium [3]: 13%
B16: 57A7 (antibody, V domains shown)
VH: B10 VH with M34I, G44D, A57G, S63K, L70M, T101R, S103G, F106Y
VL: B7 VL with K45N, S53N
notes: hybridoma mAb

% Change Compared to pH 7.4 + Calcium [1]: -2%
% Change Compared to pH 7.4 + Calcium [2]: 4%
% Change Compared to pH 7.4 + Calcium [3]: 5%
B17: 55B1 (antibody, V domains shown)
VH: B10 VH with H33Y, M34F, N52H, S63K, L70M, R98K, T101R, F106Y
VL: B7 VL with G28V, K45N, I106L
notes: hybridoma mAb

% Change Compared to pH 7.4 + Calcium [1]: -6%
% Change Compared to pH 7.4 + Calcium [2]: -1%
% Change Compared to pH 7.4 + Calcium [3]: 1%
B19: 56E5 (antibody, V domains shown)
VH: B10 VH with K23Q, S63K, L70M, S84R, Y95H, F106Y
VL: B7 VL with S30R, R31K
notes: hybridoma mAb

% Change Compared to pH 7.4 + Calcium [1]: 19%
% Change Compared to pH 7.4 + Calcium [2]: 33%
% Change Compared to pH 7.4 + Calcium [3]: 7%
B20: 148E10 (antibody, V domains shown)
VH: QVQLVESGGGVVQPGRSLRLSCAASGFTFSSYGMHWVRQAPGKGLEWVAVIWFDGSNKYYVDSVKDRFTISRDNSKNTLYLQMNSLRAEDTAVYYCARDRVEGSGTPYYYYGMDVWGQGTTVTVSS
VL: SYELTQPPSVSVSPGQTASITCSGDKLGNKYVCWYQQRPGHAAVLIIYQDSKRPSGIPERFSGSNSGNTATLTISGTQAMDEADYFCQAWDRNTYVVFGGGTKLTVL
notes: hybridoma mAb

% Change Compared to pH 7.4 + Calcium [1]: -3%
% Change Compared to pH 7.4 + Calcium [2]: 2%
% Change Compared to pH 7.4 + Calcium [3]: 4%
B21: 175D10 (antibody, V domains shown)
VH: B22 VH with I34L, S41T, N52H, R63K, N77S, A79V, S98Y
VL: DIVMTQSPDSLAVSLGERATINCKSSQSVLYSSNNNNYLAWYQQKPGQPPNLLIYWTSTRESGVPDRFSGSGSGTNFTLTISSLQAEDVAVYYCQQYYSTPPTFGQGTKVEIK
notes: hybridoma mAb
